Measured values from the nanobody polyreactivity screen of Harvey et al. (2022).

Assay: yeast display, Sf9 membrane polyspecificity reagent, FACS + sequencing; frameworks hold sequencing errors
How it was run: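 Galactose-induced (36–48 hours) yeast carrying a synthetic nanobody display library were exposed to 10% biotinylated, detergent-solubilized Sf9 membrane reagent at 4 °C for 1 hour. FACS followed streptavidin microbead enrichment, using low and high (top ~1%) gates for expression (anti-HA) and reagent binding (streptavidin). Colony PCR, MiSeq 2 × 250 sequencing and CDR-length filtering followed. Labels for polyreactivity reflect the gate of origin.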

Sequence | polyreactivity (PSR sort gate)
QVQLVESGGGLLQAGGSLRLSCAASGYTFASNAMGWYRQAPGKERELVAAITRGGSTNYADSVKGRFTISRDNAKNTVYLQMNSLKPEDTAVYYCAAPRYRHTRKGGYWGQGTQLTVSS | low polyreactivity
QVQLVESGGGLLQAGGSLRVSCAASGSTLVGNTMGWYRQAPGKESELLAAITGVGSTNYADSVKGRFTISRDNAKNSVYLQMNSLKPEDTAVYSCAAEYSYTYIVSYLYDMDYWGQATQVTVSS | low polyreactivity
QVQLVESGGGLLQAGGSLSLICAASGFSIYKNAMGWYSQAPGKERELVAAITSSGGYTYYADSVKGRFTISRDNAKNTVYLQMNILKPEDTAVYYCAGSPQAYIADYDYWGQGTQVTVSS | low polyreactivity
QVQLVESGGGLVEAGGSLRLSCAAGGRIVDRYAMGWYRQAPGKEREVVAAISDRGGSTYYADSVKGRFTISRDNAKNTVYLQMNSLKPEDTAVYYCNKVYGWYSFTWGPTASDYWGQGTQVTVSS | low polyreactivity
QVQLVESGGGLVEAGGSLRLSCAASGIFRYYAMGWYRQAPGKERELVASITGGGSTYYADSVKGRFTISRDNAKNTVYLQMNSLKPEDTAVYYCNTAGAYYRWTPYYYWGQGTQVTVSS | high polyreactivity
QVQLVESGGGLVEAGGSLRLSCAASGRIFLYKAMGWYRQAPVKERELVAAITASGGTTYYADSVKGRFTLSRDNAKNTVYLQMNSLKPEDTAVYYCNAYSYSGERYYWGQGTQVTVSS | high polyreactivity
QVQLVESGGGLVEAGGSLRLSCAASGSNFPWNAMGWSIQAPGKESDLVAGISSRGGSTYYADSVKGRFTISRDNAKNTVYLQMNSLKPEDTAVYYCNAAAVRRGRLVKLDYWGQGTQVTVSS | high polyreactivity
QVQLVESGGGLVEAGGSLRLSCAASGSTFGYNAMGWYRQAPGKERELVAAISWSGGSTYYADSVKGRFTISRDNAKNTVYLQMNSLKPEDTAVYYCATPYVKWNDYWGQGTQVTVST | low polyreactivity
QVQLVESGGGLVEAGGSLRLSCAASGSTSRHNTMGWYRQAPGKERELVAAISGGGTTYYADSVKGRFTISRDNAKNTVYLQMNRLNPEDTAVDDCAAAFWGDYASSYRAGLDYWGQGTQETVSS | low polyreactivity
QVQLVESGGGLVEAGGSLRLTCAASGSIFTYYAMGWFRPAPGKERELVADITKSGGRTYYADSVKGRFTISRDNAKNTVYLQMYSLKPEDTAVYYCAAYRRNSRWELDYWGHGTQVTVSS | high polyreactivity
QVQLVESGGGLVHAGCSLRLSCAASGFTFKYYAMGWYRQPPGKEREIVAAISYSGGRTYYADSVKGRFTISRDNAKNTVYLQMNSLKPEDTAVYYCATDDVWKDGYWGQGTQVTVSS | low polyreactivity
QVQLVESGGGLVHAGGRLRLSCAASGRIFWINAMGWSRQAPGKDRELVATISSGSTSYADSVKGRFTISRDNAKNTVYLQMNRLKPEATAVYYCAVTLRYTRSGAYDYWGQGTQVTVSS | low polyreactivity
QVQLVESGGGLVHAGGRLRLSFAASGSIFAVYAMGWYRQAPGKEREFVARIAWGGGRTYYADSVKGRFTISRDNAQNTVYLQMNSLKPEDTAVYYCNAERAGTYRYDYWGQGPQVTVSS | high polyreactivity
QVQLVESGGGLVHAGGSIRLSCAASGRIFPAYAMGWYRQAPGKERELVASIRRGGITYADSVKGRFTISRDNAKNTVYLQMNSLKPEDTAVYYCNADYRGWVYHMDYWGQGTQVTVSS | low polyreactivity
QVQLVESGGGLVHAGGSLPLSCAASGLTFGSNPMRTYRQAPVQERELVAAISGGTSTNYADSVKGRFTISRDNAKNTVYLQMNSMTPEDTAVYYCAAAKRTADYASYWYVENDYWGQGSQVTVSS | low polyreactivity
QVQLVESGGGLVHAGGSLRISCAASGSTFEWNAMGWYRQAPGKEREFVAAISKTGDGTYADSVKGRFTISRDNAKNSVYLQMNSLKPEDTAVYYCAAVDGFWVNYWYRIGYDYWGQGTQVTVSS | low polyreactivity
QVQLVESGGGLVHAGGSLRLSCAACGRIFTYYAMGWYRQAPGKERELVAAITWSGGSTYYADSVKGRFTISRDNAKNTVYLQMNSLKPEDTAVYYCNAVVLHVTTDNSTFTTDDYWGQGTQVTVSS | low polyreactivity
QVQLVESGGGLVHAGGSLRLSCAASGFIFAANAKGWYRQAPGKERELVAAINYRGSSTYYADSVKGRFTISRDNAKNTVYLQMNSLKPYDTAVYYCAAVSSIYSGYGYWGQGTQVTVSS | high polyreactivity
QVQLVESGGGLVHAGGSLRLSCAASGFIFDRYVMGWYRQAPGKERDLVAAINRSGGSTYYADSVKGRFTISRDNAKNTVYLQMNSLKPEDTAVYYCAADRAGSFTTMDYWGHGTQVTVSS | high polyreactivity
QVQLVESGGGLVHAGGSLRLSCAASGFIFDTYAMGWYRQAPGKERELVAAISRSGVRTYYADSVKGRFTISRDNAKNTVYLQMNILKPEDTAVYYCNAALNRYHFGRAFPGVYWGHGTQVTVSS | high polyreactivity
QVQLVESGGGLVHAGGSLRLSCAASGFIFGINAMGWYRQAPGKERELVATITSGGGTNYADSVKGRFTISRDNAKNTVYLQMKSVKPEDTAVYYCADEDDYIYFYLSMDYWGQCTQVTVSS | low polyreactivity
QVQLVESGGGLVHAGGSLRLSCAASGFIYDAYANGWYRQSPGKERELVAAIDSGGSTDYADSVKGRFTISRDNAKNTVYLQMNSLKPEDTAVYYCNAERAYLWWYNFDYWGQGTQVTVSS | low polyreactivity

Sequence | polyreactivity (PSR sort gate)
QVQLVESGGGLVHAGGSLRLSCAASGFTFGSNAMGWYRQAPGKERELVAAISSRGGRTYYADSVKGRFTISRDNAKNTVYLQMNRLKPDDTAVYYCNADATVAWREQEYEYWGQGTQVSVSS | high polyreactivity
QVQLVESGGGLVHAGGSLRLSCAASGITFEVYGMGWYRQSPGKERELVAAINSDGNTNYADSVKGRFTISRDNAKNTVYLEMNSVKPEDTAVYYCATVVNAQISRGESAVTGYYYWGQGTQVTVSS | high polyreactivity
QVQLVESGGGLVHAGGSLRLSCAASGITSPYSMGWYRQSPGKERELVAAISSGASTYYADTVKGRFTISRDNAKNTVYLQMNSLKPEVTAVYYCNRVTKRYPNIGNYWGQGTQVTLSS | high polyreactivity
QVQLVESGGGLVHAGGSLRLSCAASGLIFPRYDMGWYRQAPGKELELVAAITSGGGTYYADSVKGRITISRDNAKNTVYLQMNSLIPEDTAVYYCARDHYRHSRFFYRYVYWGQGTQVSVSS | low polyreactivity
QVQLVESGGGLVHAGGSLRLSCAASGLTFYGYTMGCYRQAPGKERQLVADISISGGSTRYADSVKGRFTISRDNAKNTVYLQMISLKPEDTAVYYCARDDIYYSNIYDYWGQGTQVTVSS | low polyreactivity
QVQLVESGGGLVHAGGSLRLSCAASGMTFTKNVMGWYRQSPGKERELVAVISRSGGSTYYADSVKGRFTISRDNAKNTVYLQMNSLKPEDTAVYYCNVKGPGPSRGNYWGQGTQVTVSS | low polyreactivity
QVQLVESGGGLVHAGGSLRLSCAASGRIFGVYAMGWYRQAPGKERELVAAISEGGGSTNYADSVKGRFTISRDNAKNTVYLQMNSLKPEDTAVYYCAATYRTGVRRYYSWGQGTQVTVSS | low polyreactivity
QVQLVESGGGLVHAGGSLRLSCAASGRTFGTYAKGWYRQAPGKERELVAAISSRGGSTYYADSVKGRFTISRDNAKNTVYLQMNSLKPEDTAVYYCAQRVKDGSGYWGQGTQVTVSS | high polyreactivity
QVQLVESGGGLVHAGGSLRLSCAASGRTFNRYAMGWYRQAPGKERELVAAISGGGSSTSYADSVKGRFTISRDNAKNTVYLQMNSLKPEDTAVYYCAAKYGGLRYYNMYYWGQGTQVTVSS | low polyreactivity
QVQLVESGGGLVHAGGSLRLSCAASGRTFNWNAMGWYRQEPGKEREFVASINGGGSSYYADSVKGRFTISRDNAKNTVYLQMNSLKPDDTAVYYCAAPWVGTFVSGRCYYWGQGTHVTVSS | low polyreactivity
QVQLVESGGGLVHAGGSLRLSCAASGRTFRWYALGWYRQAPGKERELVAAISSSGTRTYYADSVKGRFTISRDNAKNTVYLQMNSLKPEDTAVYYCAATWRVGYDYWGQGTQVTVSS | high polyreactivity
QVQLVESGGGLVHAGGSLRLSCAASGRTLKYYAMGWYRQAPGKERELVAAISGGDSTYYADSVKGRFTISRDNAKNTVYLQMNSLKPEDTAVYYCNARRFIWWYPYLRDYWGQGTQVTVSS | high polyreactivity
QVQLVESGGGLVHAGGSLRLSCAASGSIFDDYAMGWYRQAPGKERELVAAITSGGSTYYADSVKGRFTISRDNAKNTVYLQMNSLKTEDTAVYYRATRYHWSSCFAPVGAYGYWGLGTQVTVSS | low polyreactivity
QVQLVESGGGLVHAGGSLRLSCAASGSIFEGNGMGWYRQAPGKERELVAAITFRSGSTYNADSVKGRFTISRDNEKNTVYLPMNSLKPEDTAVYYCAADEYYQVSAYDYWGQGTQVTVSS | low polyreactivity
QVQLVESGGGLVHAGGSLRLSCAASGSIFGWYAMGWYRQAPGKERELVASISWSGGGTYYADSVKGRFTISRDNAKNTVYLQMKSLKPEDTAVYYCAAVYIWRYGIRGGYYWGQGTQVSVSS | high polyreactivity
QVQLVESGGGLVHAGGSLRLSCAASGSIFNVYAMGWYRQAPGKERELVAAITQSGGSTYYADSVKGRFTISRDNAKNTVYLQMNSLKPEDTAVSYCAADNRYTYYYWGQCTQVTVSS | low polyreactivity
QVQLVESGGGLVHAGGSLRLSCAASGSIFRGYAMGWYRQAPGKERELVAAISRDGGSTYYADSVKGRFSISRDNAKNTVYLQMNSLKPEETAVYYCAADYVAYATYGDGDYWGQGTQVTVSS | high polyreactivity
QVQLVESGGGLVHAGGSLRLSCAASGSIFRPYAMGWYRQAPGKERELVAAISRRGGSTYYADSVKGRFTISRDNAKNTVYLQLISLKPEDTAVYYCAADHSGPSPYGYGYWGQGTQVTVSS | high polyreactivity
QVQLVESGGGLVHAGGSLRLSCAASGSIFVRNDMGWYRPAPGKERELVAVITRSAGGTYYADSVKGRFTISRDTAKNSVYFQMNSLKPEDTAFYYCAASPSTPNKYGSWGHGTQVTVSS | high polyreactivity
QVQLVESGGGLVHAGGSLRLSCAASGSIITYYAMGWSRQAPGKERELVAVISASGGRTYYADSVKVRFTISLDNAMYSVYLQMNSLKPEDTAVYYCAAYRSIYSFKFGYWGQGSQVTVSS | high polyreactivity
QVQLVESGGGLVHAGGSLRLSCAASGSILARYARGWYRQEPGKERELVAAISSRGGSTYYADSVKGRFTISRDYAKNTVYLQMNSLKPEDTAVYYCAASVYLQVEYDYWGQGTQVTVSS | low polyreactivity
